Results taken from publication PMC2720974, “DNA-binding by Haemophilus influenzae and Escherichia coli YbaB, members of a widely-distributed bacterial protein family” (BMC Microbiology, 2009).
Changes are numbered by the printed parent chain.

B1: Haemophilus influenzae YbaB (natural protein, H. influenzae, UniProt P44711 1-109, looked up)
chain: MFGKGGLGGLMKQAQQMQEKMQKMQEEIAQLEVTGESGAGLVKITINGAHNCRRIDIDPSLMEDDKEMLEDLIAAAFNDAVRRAEELQKEKMASVTAGMPLPPGMKFPF
notes: Purified on a His-Trap column; removal of the tag is not mentioned; also called YbaBHi; HI0442; source: E. coli Rosetta pLysS, purified (His-Trap HP)
B2: b-WT (dsDNA)
DNA 1: TTGTAATGAGTAGTGCATTTGCAATGGAGAGATTTTGGGGAGTTGTTTAAAATTACATTTGCGTTTTGTTAAAATGTAACAGCTGAATGTAACAAAATTATATATTTAAATCTTTGAAATATTGC
DNA 2: GCAATATTTCAAAGATTTAAATATATAATTTTGTTACATTCAGCTGTTACATTTTAACAAAACGCAAATGTAATTTTAAACAACTCCCCAAAATCTCTCCATTGCAAATGCACTACTCATTACAA
B3: b-C30 (dsDNA)
DNA 1: B2 DNA 1 with T75C, G76A, T77C, A94T
DNA 2: B2 DNA 2 with T32A, A49G, C50T, A51G
B4: b-C40 (dsDNA)
DNA 1: B2 DNA 1 with T75C, G76A, T77C, A91G
DNA 2: B2 DNA 2 with T35C, A49G, C50T, A51G
B5: b-C50 (dsDNA)
DNA 1: B2 DNA 1 with T75C, G76A, T77C, A92T
DNA 2: B2 DNA 2 with T34A, A49G, C50T, A51G
B6: b-C2 (dsDNA)
DNA 1: B2 DNA 1 with T75C, G76A, T77C
DNA 2: B2 DNA 2 with A49G, C50T, A51G
B7: b-C20 (dsDNA)
DNA 1: B2 DNA 1 with T75C, G76A, T77C, C93A
DNA 2: B2 DNA 2 with G33T, A49G, C50T, A51G

Legend:
[1] = target: the molecule itself; test: SEC; data not shown; Superdex 75 10/300 GL, 200 mM NaCl, 50 mM Tris-HCl pH 7.5, 1% glycerol; 200 ul of about 0.2 mg/ml YbaBHi; mass from a calibration curve of standards
YbaBHi [2] = target: T1, YbaBHi (Haemophilus influenzae, UniProt P44711 1-109); test: EMSA; first step, apparent monomer-equivalent; EMSA: 100 pM biotin-DNA, 50 mM Tris-HCl pH 7.5, 1 mM DTT, protease inhibitor 8 ul/ml, phosphatase inhibitor 2 ul/ml, 10% glycerol, no added salt stated, 20 min, room temperature; settings: protein: recombinant; tags: pET15b vector tag, His-Trap purified; chain copies: 2; label: 5' biotin on strand 1; blunt
YbaBEc [3] = target: T2, YbaBEc (Escherichia coli, UniProt P0A8B5 1-109); test: as above; settings: protein: recombinant; tags: pET200-TOPO vector tag, His-Trap purified; chain copies: 2; label: 5' biotin on strand 1; blunt
T2 sequence: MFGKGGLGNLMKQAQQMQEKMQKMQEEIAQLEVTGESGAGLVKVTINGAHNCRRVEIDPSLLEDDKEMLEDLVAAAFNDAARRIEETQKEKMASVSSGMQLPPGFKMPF

YbaBEc [4] = target: T2, YbaBEc; test: EMSA; first step, n=1.93; EMSA: 100 pM biotin-DNA, 50 mM Tris-HCl pH 7.5, 1 mM DTT, protease inhibitor 8 ul/ml, phosphatase inhibitor 2 ul/ml, 10% glycerol, no added salt stated, 20 min, room temperature; settings: protein: recombinant; tags: pET200-TOPO vector tag, His-Trap purified; chain copies: 2; label: 5' biotin on strand 1; blunt
YbaBHi [5] = target: T1, YbaBHi; test: EMSA; first step, n=2.09; EMSA: 100 pM biotin-DNA, 50 mM Tris-HCl pH 7.5, 1 mM DTT, protease inhibitor 8 ul/ml, phosphatase inhibitor 2 ul/ml, 10% glycerol, no added salt stated, 20 min, room temperature; settings: protein: recombinant; tags: pET15b vector tag, His-Trap purified; chain copies: 2; label: 5' biotin on strand 1; blunt
YbaBHi [6] = target: T1, YbaBHi; test: EMSA; no detectable effect of mutation; EMSA: 100 pM biotin-DNA, 50 mM Tris-HCl pH 7.5, 1 mM DTT, protease inhibitor 8 ul/ml, phosphatase inhibitor 2 ul/ml, 10% glycerol, no added salt stated, 20 min, room temperature; settings: protein: recombinant; tags: pET15b vector tag, His-Trap purified; chain copies: 2; label: 5' biotin on strand 1; blunt
YbaBEc [7] = target: T2, YbaBEc; test: as above; settings: protein: recombinant; tags: pET200-TOPO vector tag, His-Trap purified; chain copies: 2; label: 5' biotin on strand 1; blunt
YbaBHi [8] = target: T1, YbaBHi; test: EMSA; protein at half its Kd; EMSA: 100 pM biotin-DNA, 50 mM Tris-HCl pH 7.5, 1 mM DTT, protease inhibitor 8 ul/ml, phosphatase inhibitor 2 ul/ml, 10% glycerol, no added salt stated, 20 min, room temperature; settings: protein: recombinant; tags: pET15b vector tag, His-Trap purified; chain copies: 2; label: 5' biotin on strand 1; blunt
YbaBEc [9] = target: T2, YbaBEc; test: as above; settings: protein: recombinant; tags: pET200-TOPO vector tag, His-Trap purified; chain copies: 2; label: 5' biotin on strand 1; blunt
EbfC = target: T3, EbfC (Borrelia burgdorferi, UniProt O51418 1-99); test: EMSA; specific plus nonspecific complex; EMSA: 100 pM biotin-DNA, 50 mM Tris-HCl pH 7.5, 1 mM DTT, protease inhibitor 8 ul/ml, phosphatase inhibitor 2 ul/ml, 10% glycerol, no added salt stated, 20 min, room temperature; settings: protein: recombinant; tags: His-Trap purified (His tag implied); chain copies: 2; label: 5' biotin on strand 1; blunt
T3 sequence: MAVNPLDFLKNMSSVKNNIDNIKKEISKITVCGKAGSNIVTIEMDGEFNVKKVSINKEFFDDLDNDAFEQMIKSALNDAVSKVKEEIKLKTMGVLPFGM

Binder	binding result (YbaBHi [6])	binding result (YbaBEc [7])	further results
B1			stoichiometry N [1]: 2
B2			Kd (YbaBHi [2]): 240 nM; Kd (YbaBEc [3]): 77 nM; Ka (YbaBEc [4]): 1.7e+14 M-2; Ka (YbaBHi [5]): 1.7e+13 M-2
B3	binds	binds	
B4	binds	binds	
B5	binds	binds	
B6			binding result (YbaBHi [8]): binds; binding result (YbaBEc [9]): binds; binding result (EbfC): binds
B7	binds	binds	
